The values below come from the RNAGym collection of RNA variant scans (doi:10.7554/elife.90254).

B1: LINE1-full (parent)
chain: UACGUAGGUGGUUUUCCCCUGAUAGUGCUAAGGGGGCCUGGAAGUUUGGACUGGGCAGAGCUCAACACAGCGUGGCAAAGUGGCUGUGGCUAGACUGCCUCUCUGGAUUCCUCGUCACUCAGCAGGGCAUCUCUGAGAGAAAUGCC

The variants in this data set derive from B1. The data set is described as follows: self-cleavage, relative activity (ratio to wild type); higher = more cleavage; in vitro, sequencing; the parent is a self-cleaving ribozyme.
Regarding UACCUAGGUGGUUUUCCCCUGAUAGUGCUAAGGGGGCCUGGAAGUUUGGACUGGGCAGAGCUCAACACAGCGUGGCAAAGUGGCUGUGGCUAGACUGCCUCUCUGGAUUCCCCGUCACUCAGCAGGGCAUCUCUGAGAGAAAUGCC, the self-cleavage was 1.42. Consider UACUUAGGUGGUUUUCCCCUGAUAGUGCUAAGGGGGCCUGGAAGUUUGGACUGGGCAGAGCUCAACACAGCGUGGCAAAGUGGCUGUGGCUAGACUGCCUCUCUGGAUUCCUCGUCACUCAGCAGGGCAACUCUGAGAGAAAUGCC, for which the self-cleavage is 1.16.

As for UACUUAGGUGGUCUUCCCCUGAUAGUGCUAAGGGGGCCUGGAAGUUUGGACUGGGCAGAGCUCAACACAGCGUGGCAAAGUGGCUGUGGCUAGACUGCCUCUCUGGAUUCCUCGUCACUCAGCAGGGCAUCUCUGAGAGAAAUGCC, the self-cleavage is 0.93. With UACGAAGGUGGUUUUCCCCUGAUAGUGCUAAGGGGGCCUGGAAGUUUGGGCUGGGCAGAGCUCAACACAGCGUGGCAAAGUGGCUGUGGCUAGACUGCCUCUCUGGAUUCCUCGUCACUCAGCAGGGCAUCUCUGAGAGAAAUGCC, the self-cleavage came out at 0.78.

Regarding UACCUAGGUGGUUUUCCCCUGAUAGUGCUAAGGGGGCCUGGAAGUUUGGACUGGGCAGAGCUCAACACAGCGUGGCAAAGUGGCUGCGGCUAGACUGCCUCUCUGGAUUCCUCGUCACUCAGCAGGGCAUCUCUGAGAGAAAUGCC, the self-cleavage worked out at 0.74. As for UACUUAGGUGGUUUUCCCCUGAUAGUGCUAAGGGGGCCUGGAAGUUUGGACUGGGCAGAGCUCAACACAGCGUGGCAAAGUGGCUGUGGCUAGACUGCCUCUCUGGAUUCCUCGUCACUCAGCAGGGCGUCUCUGAGAGAAAUGCC, the figure is 1.07; as for UACUUAGGUGGUUUUCCCCUGAUAGUGCUAAGGGGGCCUGGAAGUUUGGACUGGGCAGAGCUCAACACGGCGUGGCAAAGUGGCUGUGGCUAGACUGCCUCUCUGGAUUCCUCGUCACUCAGCAGGGCAUCUCUGAGAGAAAUGCC, 0.32. For the variant UACUUAGGUGGUUUUCCCCUGAUAGUGCUAAGGGGGCCUGGAAGUUUGGACUGGGCAGAGCUCAACACAGCGCGGCAAAGUGGCUGUGGCUAGACUGCCUCUCUGGAUUCCUCGUCACUCAGCAGGGCAUCUCUGAGAGAAAUGCC, the self-cleavage came out at 2.45.

For UACGAAGGUGGUUUUCCCCUGAUAGUGCUAAGGGGGCCUGGAAGUUUGGACUGGGCAGGGCUCAACACAGCGUGGCAAAGUGGCUGUGGCUAGACUGCCUCUCUGGAUUCCUCGUCACUCAGCAGGGCAUCUCUGAGAGAAAUGCC, the self-cleavage amounted to 0.11.

In the case of UACGAAGGUGGUUUUCCCCUGAUAGUGCUAAGGGGGCCUGGAAGUUUGGACUGGGCAGUGCUCAACACAGCGUGGCAAAGUGGCUGUGGCUAGACUGCCUCUCUGGAUUCCUCGUCACUCAGCAGGGCAUCUCUGAGAGAAAUGCC, the self-cleavage was 0.52. As for UACGAAGGUGGUUUUCCCCUGAUAGUGCUAAGGGGGCCUGGAAGUUUGGACUGGGCAGAGCUCAACUCAGCGUGGCAAAGUGGCUGUGGCUAGACUGCCUCUCUGGAUUCCUCGUCACUCAGCAGGGCAUCUCUGAGAGAAAUGCC, the figure is 0.14; as for UACGAAGGUGGUUUUCCCCUGAUAGUGCUAAGGGGGCCUGGAAGUUUGGACUGGGCAGAGCUCAACACAGCGUGGCAUAGUGGCUGUGGCUAGACUGCCUCUCUGGAUUCCUCGUCACUCAGCAGGGCAUCUCUGAGAGAAAUGCC, 1.89.

As to UACUUAGGUGGUUUUCCCCUGAUAGUGCUAAGGGGGCCUGGAAGUUUGGACUGGGCAGAGCUCAACACAGCGUGGCAAAGUGGCUGUGGCUAGACUGCCCCUCUGGAUUCCUCGUCACUCAGCAGGGCAUCUCUGAGAGAAAUGCC, the self-cleavage was 1.73. For UACCUAGGUGGUUUUCCCCUGAUAGUGCUAAGGGGGCCUGGAAGUUUGGACUGGGCAGAGCUCAACACAGCGUGGCAAAGUGGCUGUGGCUAGACUGCCCCUCUGGAUUCCUCGUCACUCAGCAGGGCAUCUCUGAGAGAAAUGCC the value was 1.81. As for UACGAAGGUGGUUUUCCCCUGAUAGUGCUAAGGGGGCCUGGAAGUUUGGACUGGGCAGAGCUCAACACAGCGUGGCAAAGUGGCUGUGGCUAGACUGCCUCUCUGGAUUCCUCGUCACUCAGCGGGGCAUCUCUGAGAGAAAUGCC, the figure is 1.75. As for UACUUAGGUGGUUUUCCCCUGAUAGUGCUAAGGGGGCCUGGAAGAUUGGACUGGGCAGAGCUCAACACAGCGUGGCAAAGUGGCUGUGGCUAGACUGCCUCUCUGGAUUCCUCGUCACUCAGCAGGGCAUCUCUGAGAGAAAUGCC, the self-cleavage turned out to be 1.04. As for UACUUAGGUGGUUUUCCCCUGAUAGUGCUAAGGGGGCCUGGAAGUUUGGACUGGGCAGAGUUCAACACAGCGUGGCAAAGUGGCUGUGGCUAGACUGCCUCUCUGGAUUCCUCGUCACUCAGCAGGGCAUCUCUGAGAGAAAUGCC, the figure is 0.08; as for UACCUAGGUGGUUUUCCCCUGAUAGUGCUAAGGGGGCCUGGAAGUUUGGACUGGGCAGAGCUCAACACAGCGUGGCAAAGUGGCUGUGGCUAGACUGCCUCUCUGGAUUCCUCGACACUCAGCAGGGCAUCUCUGAGAGAAAUGCC, 1.51. As for UACCUAGGUGGUUUUCCCCUGAUAGUGCUAAGGGGGCCUGGAAGUUUGGACUGGGCAGAGCUCAACACAGCGUGGCAAAGUGGCUGUGGCUAGACUGCCUCUCUGGAUUCCUCGUCACUCAGCAGGGCAUCCCUGAGAGAAAUGCC, the figure is 0.97; as for UACUUAGGUGGUUUUCCCCUGAUAGUGCUAAGGGGGCCUGGAAGUUUGGACUGGGCAGAGCUCAACACAGCGUGGCAAAGUGGCUGUGGCUAGACAGCCUCUCUGGAUUCCUCGUCACUCAGCAGGGCAUCUCUGAGAGAAAUGCC, 0.09; as for UACUUAGGUGGUUUUCCCCCGAUAGUGCUAAGGGGGCCUGGAAGUUUGGACUGGGCAGAGCUCAACACAGCGUGGCAAAGUGGCUGUGGCUAGACUGCCUCUCUGGAUUCCUCGUCACUCAGCAGGGCAUCUCUGAGAGAAAUGCC, 1.33. For the variant UACGAAGGUGGUUUUCCCCUGGUAGUGCUAAGGGGGCCUGGAAGUUUGGACUGGGCAGAGCUCAACACAGCGUGGCAAAGUGGCUGUGGCUAGACUGCCUCUCUGGAUUCCUCGUCACUCAGCAGGGCAUCUCUGAGAGAAAUGCC, the self-cleavage was 0.73. On to UACCUAGGUGGGUUUCCCCUGAUAGUGCUAAGGGGGCCUGGAAGUUUGGACUGGGCAGAGCUCAACACAGCGUGGCAAAGUGGCUGUGGCUAGACUGCCUCUCUGGAUUCCUCGUCACUCAGCAGGGCAUCUCUGAGAGAAAUGCC, for which the self-cleavage is 0.93. As for UACCUAGGUGGUUUUCCCCUGAUAGUGCUAAGGGGGCCUGGAAGUUUGGACUGGGCAGAGCUCAACACAGCGUGGCAAAGUGGCUGUGGCUAGACUGCCUCUCUGGAUUCCUCGUCACUCAGCAGGGCAACUCUGAGAGAAAUGCC, the figure is 1.1; as for UACGAAGGUGGUUUUCCCCUGAUAGUGCUAAGGGGGCCUGGAAGUUUGGACUGGGCAGAGCUCAACACAGCGUGGCAAGGUGGCUGUGGCUAGACUGCCUCUCUGGAUUCCUCGUCACUCAGCAGGGCAUCUCUGAGAGAAAUGCC, 0.87; as for UACGAAGGUGGUUUUCCCCUGAUAGUGCUAAGGGGGCCUGGAAGUUUGGACUGGGCAGAGCUCAACACAGCGUGGCAAUGUGGCUGUGGCUAGACUGCCUCUCUGGAUUCCUCGUCACUCAGCAGGGCAUCUCUGAGAGAAAUGCC, 0.77. For UACUUAGGUGGUUUUCCCCUGAUAGUGCUAAGGGGGCCUGGAAGUUUGGACUGGGCAGAGCUCAACACAGCGUGGCAAACUGGCUGUGGCUAGACUGCCUCUCUGGAUUCCUCGUCACUCAGCAGGGCAUCUCUGAGAGAAAUGCC the value was 1.07; for UACUUAGGUGGUUUUCCCCUGAUAGUGCUAAGGGGGCCUGGAAGUUUGGACUGGGCAGAGCUCAACACAGCGUGGCAAAGUGGCUGUGGCUAGACUGCCUCUCUGGAUUCCUCGUCACUCAGCAGGGCAUCUCUGAGAGAAGUGCC, 1.46. For UACCUAGGUGGUUUCCCCCUGAUAGUGCUAAGGGGGCCUGGAAGUUUGGACUGGGCAGAGCUCAACACAGCGUGGCAAAGUGGCUGUGGCUAGACUGCCUCUCUGGAUUCCUCGUCACUCAGCAGGGCAUCUCUGAGAGAAAUGCC the value was 1.18; for UACUUAGGUGGUUUUCCCCUGAUAGUGCUAAGGGGGCCUGGAAGUUUGGACUGGGCAGAGCUCAACACAGCGUGGCAAAGUGGCUGUGGCUAGACUGCCUCUCUGGAUUCCUCGUCACUCAGCAGGGCAUCUCUGAGAGAAAUGCC, 1.25; for UACGAAGGUGGUUUUCCCCUGAUAGUGCUAAGGGGGCCUGGAAGUUUGGACUGGGCAGAGCUCAACACAGCGUGGCAAAGUGGCUGUGGCUAGACUGCCUCUCUGGAUUCCUCGUCACUCGGCAGGGCAUCUCUGAGAGAAAUGCC, 0.84.

For UACGAAGGUGGUUUUCCCCUGAUAGUGCUAAGGGGGCCUGGGAGUUUGGACUGGGCAGAGCUCAACACAGCGUGGCAAAGUGGCUGUGGCUAGACUGCCUCUCUGGAUUCCUCGUCACUCAGCAGGGCAUCUCUGAGAGAAAUGCC, the self-cleavage worked out at 1.15.

Take UACGAAGGUGGUUUUCCCCUGAUAGUGCUAUGGGGGCCUGGAAGUUUGGACUGGGCAGAGCUCAACACAGCGUGGCAAAGUGGCUGUGGCUAGACUGCCUCUCUGGAUUCCUCGUCACUCAGCAGGGCAUCUCUGAGAGAAAUGCC: the self-cleavage was 1.1. For UACGAAGGUGGUUUUCCCCUGAUAGUGCUAGGGGGGCCUGGAAGUUUGGACUGGGCAGAGCUCAACACAGCGUGGCAAAGUGGCUGUGGCUAGACUGCCUCUCUGGAUUCCUCGUCACUCAGCAGGGCAUCUCUGAGAGAAAUGCC the value was 0.82; for UACUUAGGUGGUUUUCCCCUGAUAGUGCUAAGGGGGCCUGGAAGUUUGGACUGGGCAGAGCUCAACACAGCGUGGCAAAGUGGCUGUGGCUAGACUGCCUCUCUGGAUUACUCGUCACUCAGCAGGGCAUCUCUGAGAGAAAUGCC, 1.56. As for UACCUAGGUGGUUUUCCCCUGAUAGUGCUAAGGGGGCCUGGAAGUUUGGACUGGGCAGAGCUCAACACAGCGUGGCAAAGUGGCUGUGGCAAGACUGCCUCUCUGGAUUCCUCGUCACUCAGCAGGGCAUCUCUGAGAGAAAUGCC, the figure is 0.75. UACGAAGGUGGUUUUCCCCUGAUAGUGCUAAGGGGGCCUGGAAGUUUGGACUGGGCAGAGCUCAGCACAGCGUGGCAAAGUGGCUGUGGCUAGACUGCCUCUCUGGAUUCCUCGUCACUCAGCAGGGCAUCUCUGAGAGAAAUGCC: the self-cleavage turned out to be 0.08. Regarding UACGAAGGUGGUUUUCCCCUGAUAGUGCUAAGGGGGCCUGGAAGUUUGGACUGGGCAGAGCUCAUCACAGCGUGGCAAAGUGGCUGUGGCUAGACUGCCUCUCUGGAUUCCUCGUCACUCAGCAGGGCAUCUCUGAGAGAAAUGCC, the self-cleavage was 0.26. For UACCUAGGUGGUUUUCCCCUGAUAGUGCUAAGGGGGCCUGGAAGUUUGGACUGGGCAGAGCUCAACACAGCGUGGCAAAGUGGCCGUGGCUAGACUGCCUCUCUGGAUUCCUCGUCACUCAGCAGGGCAUCUCUGAGAGAAAUGCC the value was 0.13.
